Test results: PMC5897525

Biological target: rFel d 1.mFc
Test: SPR; 25°C; dimeric

Kd: 31.6 pM
koff: 7.25e-05 s⁻¹
Substance: REGN1908
